# From the nanobody polyreactivity screen of Harvey et al. (2022)
# Test: yeast display, Sf9 membrane polyspecificity reagent, FACS + sequencing; frameworks hold sequencing errors
# In short: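 In a synthetic yeast display library (Saccharomyces cerevisiae BJ5465), nanobody expression was induced with galactose for 36–48 hours. FACS gates were set low and high (top ~1%) using anti-HA fluorescence for expression and streptavidin fluorescence for binding of the Sf9 membrane reagent. Each polyreactivity label is drawn from the gate of origin.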
row,Sequence,polyreactivity (PSR sort gate)
1,QVQLVESGGGLVQAGGSLRLSCAASGSIIRWNAMGWYRQAPGKERELVAAITGGGGNTYYSDSVKGRFTISRDNAKNTVYLQMNSLKPEDTAVYYCNVVYRNYRNDYWGQGTQVTVSS,high polyreactivity
2,QVQLVESGGGLVQAGGSLRLSCAASGSIISINAMGWYRQAPGKERELVAAITWSGGSTYYADSVKGRVTISRDNAKNTVYLQMNSLKPEDTAVYYCAAAFWFQRGTGYYTSKFDYWGQGTQVTVSS,low polyreactivity
3,QVQLVESGGGLVQAGGSLRLSCAASGSIITWNAMGWYRQAPGKERELVAAIDWDGGSTYYADSVKGRFTISRDNAKNTVYLQMNSLKPEDSAVYYCAATYGWYTGRYPSGHYYYWGQGTQVTVSS,low polyreactivity
4,QVQLVESGGGLVQAGGSLRLSCAASGSIITWYTMGWYRQATGKERELVASISSGGTTKYADSVKGRFTISRDNAKNTVYLQMNCLKPEDTAVYYCAAEYIAYYGTGTYYGLDYWGQGTQVTVSS,low polyreactivity
5,QVQLVESGGGLVQAGGSLRLSCAASGSIIVRNAMGWYRQAPGKERELVAAISKSGGSTYYADSVKGRFTISRDNAKNTVYLQMNSLKPEDTAVYYCAVYPRSTLRTFQRDYWGQGTQVTVSS,high polyreactivity
6,QVQLVESGGGLVQAGGSLRLSCAASGSIIVWNAMGWYRQAPGKERELVASITSGASTYYADSVKGRFTISRDNAKNTVYLQMNSLKPEDTAVYFCAAYYGYTDVWYLYSGYNYWGQGTQVTVSS,low polyreactivity
7,QVQLVESGGGLVQAGGSLRLSCAASGSIIVYNAMGWYRQAPGKERELVAAITGRVGSTYYADSVKGRFTISRDNAKNTVYLQMNSMKPEDTAVYYCAARSYFKWWYAMDYWGQGTQVTVSS,high polyreactivity
8,QVQLVESGGGLVQAGGSLRLSCAASGSIIVYYAMGWYRQAPGKQRELVAANDQSGGSTYYADSVKGRFTISRDNAKNTVYLQMNSLKPEDTAVYYCASVHSLYWLGDDTYGYDYWGQGTQVTVSS,low polyreactivity
9,QVQLVESGGGLVQAGGSLRLSCAASGSIIYLYAMGWYRQAPGKERELVAAISKSGSRTYYADSVKGRFTISRDNAKNTVYLQMNSLKPEDTAVYYCATPYRVYGEGYYWGQGTQVTVSS,high polyreactivity
10,QVQLVESGGGLVQAGGSLRLSCAASGSIIYLYAMGWYRQAPGKERELVAAITSIGGSTYADSVKGRFTISRDNAKNTVYLQMNSLKPEDTAVYYCNTDEYPLTVQVQYYYWGQGTQVTVSS,low polyreactivity
11,QVQLVESGGGLVQAGGSLRLSCAASGSIIYPYVMGWYRQAPGKERELVAAISASGGSTYYADSMKGRFTISRDNAKNTVYLQMNSLKPEDTGVYYCAKYYRFRDDYDYWGQGTQVTVSS,high polyreactivity
12,QVQLVESGGGLVQAGGSLRLSCAASGSIIYQYAMGWYRQAPGKERELVAAITWSGGSTYYADSVKGRFTISRDNAKNTVYLQMNSLKPEDTAVYYCAAYAYGGRINGYRTYRYNYWGQGTQVTVSS,high polyreactivity
13,QVQLVESGGGLVQAGGSLRLSCAASGSILAINAMGWYRQAPGKERELVAAINWSGGSTFYADSVKGRFTISRDNAKNTVYLQMNSLKPEDTAVYYCNVEWTDSERGDYYVDYDYWGQGTQVTVSS,low polyreactivity
14,QVQLVESGGGLVQAGGSLRLSCAASGSILAYNAMGWYRKAPGKERELVAAIRLSGGSTYYADSVKGRFTISRDNAKNTVYLQMNSLKPEDTAVYYCARRYYRYDTRKYNYWGQGTQVTVSS,high polyreactivity
15,QVQLVESGGGLVQAGGSLRLSCAASGSILDNYGMGWYRQAPGKERELVASISGGAGSPNYADSVKGRFTISRDNAKNTVYLQMYSLKPEVTAVYDCNADQIFGPALNLWKLDYWGQGNQVTVSS,low polyreactivity
16,QVQLVESGGGLVQAGGSLRLSCAASGSILDPNAMGWYRQAPGKERELVAAISSSGGSTYYADSVKGRFTISRDNAKNTVYLQMNSLKPEDTAVYYCAADHFIPIYSKYDYWGQGTQVTVSS,high polyreactivity
17,QVQLVESGGGLVQAGGSLRLSCAASGSILDPNAMGWYRQAPGKERELVASISRGDNTYYADSVKGRFRISRDNAKNTVYLQMNSLKPEDTAVYYCAADYSWVVWHDYWGQGTQVTVSS,low polyreactivity
18,QVQLVESGGGLVQAGGSLRLSCAASGSILDSNAMGWYRQAPGKERELVAAITSGGSTYYADSVKGRFTISRDNAKNTVYLQKNSLKPEDTAVYYCDTPVASVTGYDYWGQGTQVTVSS,low polyreactivity
19,QVQLVESGGGLVQAGGSLRLSCAASGSILDSNAMGWYRQAPGKERELVAAITSGGSTYYADSVKGRFTISRDNAMNSVYLQMNSLKPEDTAVYYCAAAYLGYGAVQPSYEGGYWGQGTQVTVSS,low polyreactivity
20,QVQLVESGGGLVQAGGSLRLSCAASGSILDYYVMGWYRQAPGKERELVAAIRGGGSTYYADSVKGRFTISRDNEKNTVYLQMNRMKREDTAVNYCAAAVYGSYTTYGYFEHYFWGQGTQVTVSS,low polyreactivity
21,QVQLVESGGGLVQAGGSLRLSCAASGSILEGNGMGWYRQAPGKERELVASITRSGGSTYYSDSVKGRFTISRDNAKNTVYLQMNSLKPEDTAVYYCAAKGSTYGLTIRWYPYLHGYNYWGQGTQVTVSS,low polyreactivity
22,QVQLVESGGGLVQAGGSLRLSCAASGSILEVYAMGWYRQAPGKERELVAAISDGDSTYYADSVKGRFTISRDNAKNTVYLQMNSLKPEDTAGYYCAAEFVGTLWWYDYWGQGTQVTVSS,low polyreactivity

row,Sequence,polyreactivity (PSR sort gate)
1,QVQLVESGGGLVQAGGSLRLSCAASGSILFGYGMGWYRQAPGKERELVATITTSGGTYYADSVKGRFTISRDNAKNTVYLQMNSLKPEDTAVYYCAATAAALDGNTIMYYWGQGTQVTVSS,low polyreactivity
2,QVQLVESGGGLVQAGGSLRLSCAASGSILGDYAMGWYRQAPGKEREFVAAIDGSDGSTYYADSVKGRFTISRDNAKNTVYLQMNSLKPEDTAVYYCNVVRQGKREFDYWGQGTQVTVSS,low polyreactivity
3,QVQLVESGGGLVQAGGSLRLSCAASGSILGLYAMGWYRQAPEKERELVAGISSGGNTNYADSVKGRFTISRDNAKNTVYLQMNSLKPEDTAVYYSYDRIYRHYSTYSWTRYDYWGEGTQVTVSS,high polyreactivity
4,QVQLVESGGGLVQAGGSLRLSCAASGSILGNAMGWYRQAPGKERELVAAISRNGDSTYYADSVKGRFTISRDNAKNTVYLQMNSLKPEDTAVYYCNAQWFFYGYIAGDYWGQGTQVTVSS,high polyreactivity
5,QVQLVESGGGLVQAGGSLRLSCAASGSILGNYAMGWYRQAPGKEREVVAAISSSGRTSYADSVKGRFTISRDNAKNTVYLQMNSLKPEDTAVYYCNASNYIVLINDPDAAPWLYDYWGQGTQVTVSS,low polyreactivity
6,QVQLVESGGGLVQAGGSLRLSCAASGSILGTYAMGWYRQAPGKERELVAAISSSGRTSYADSVKGRFTISRDNAKNTVYLQMNSLKPEDTAVYYCNASNYIFLINDPDAAPWLYDYWGQGTQVTVSS,low polyreactivity
7,QVQLVESGGGLVQAGGSLRLSCAASGSILGYYAMGWYRHAPRKERELVASITGNGGSTYYADSVKGRFTISRDNAKNTVYLQMISLKPEDTAVYYCAKRVGPYKLGEYDYWGQGTQVTVSS,high polyreactivity
8,QVQLVESGGGLVQAGGSLRLSCAASGSILGYYAMGWYRQAPGKERELVAAITASGGSTYYADSVKGRFTISRDNAKNTVYLQMNSLKPEDTAVYYCAAQYYATYGYWGQGTQVTVSS,low polyreactivity
9,QVQLVESGGGLVQAGGSLRLSCAASGSILGYYGMGWYRHAPGKERELVAAISSSCNTNYADSVKGRFTISRDNAKNTVYLQMMSLKPEDTAVYYCAASFQYVAYYLYDYWGQGTQVTVSS,low polyreactivity
10,QVQLVESGGGLVQAGGSLRLSCAASGSILIWNTMGWYRQAPGKERELVAAISISGGSTYYADSVKGRFTISRDNAKNTVYLQVNSLKPEDTAVYYCAAEVAYYYYSWGTSGYWGQGTQVTVSS,low polyreactivity
11,QVQLVESGGGLVQAGGSLRLSCAASGSILIYNAMAWYRQAPGKEMQLVAGISRRGASTYYADSVKGRFTISRDMAKNTVYLPMNSLKPEDTAVYYCAALGKYIVAWSGDYWGQGTQVNVSS,low polyreactivity
12,QVQLVESGGGLVQAGGSLRLSCAASGSILKGYALGWYRQAPGKERELVAAITSSGGRTYYADSVKGRFTISRDNAKNTVYLQMNSLKPEDTAVYYCNALGGQWARYDYWGQGTQVTVSS,high polyreactivity
13,QVQLVESGGGLVQAGGSLRLSCAASGSILLAYVMGWYRPAPGKERELVAAISSGDDTKYADSVKGRFTISRDNAMNTVYLQMNSLKPEDTAVYYCNAYTLDYPYHRFGYWGQGTQVTVSS,low polyreactivity
14,QVQLVESGGGLVQAGGSLRLSCAASGSILLVYAMGWYRQAPGKERELVATITWTDGSTYYADSVKGRFTISRDNAKNTVYLQMNSLKPEDTAVYYCNAGASVNSPLVAEYYYWGQGTQVTVSS,low polyreactivity
15,QVQLVESGGGLVQAGGSLRLSCAASGSILLYYSMGWYIQAPGKERELVARISITRDSTYYADSVKGRFTISRDNAKNTVYLQMYSLNPEDTAVYFCAADPVLHYYPSYYTGALDYYWGQGTQVTVSS,low polyreactivity
16,QVQLVESGGGLVQAGGSLRLSCAASGSILNNYAMGWYRQAPGKERELVAAISSSGGTNYADSVKGRFTISRDNAKYTVYLQMNSLKPEDTAVYYCNADVLDGGYDYWGQGTQVTVSS,low polyreactivity
17,QVQLVESGGGLVQAGGSLRLSCAASGSILPLYAMGWYRQAPGKERELVATISNAGSTTYADSVKGRFTISRDNAKNTVYLQMNSLKPEDTAVYYCNAESEWGWVYVGYDYWGQGTQVTVSS,low polyreactivity
18,QVQLVESGGGLVQAGGSLRLSCAASGSILPTNAMGWYRQAPGKERELGASITRSGGSTYYADSVKGRFTISRDNAKNTVYLQMNSLKPEDTAVYYCNARGFTRYTVGRNYWGQGTQVTVSS,high polyreactivity
19,QVQLVESGGGLVQAGGSLRLSCAASGSILQDYTMGWYRQAPGKERELVAAITWNGGSTYYADSVKGRFTISRDNEKNTVYLHMTSLKPEHTAVYYCAAYCRVVPSFYYWGQGTQVTVSS,low polyreactivity
20,QVQLVESGGGLVQAGGSLRLSCAASGSILRDYAMGWYRQAPGKERELVAAITTSGAITYYADSVKGRFTISRDNAKNTVYLQMNSLKTEDTAVYYCNAKYVRWYGKYNYWGQGTQVTVSS,high polyreactivity
21,QVQLVESGGGLVQAGGSLRLSCAASGSILRFNSMGWYRQAPGKERELVATITKGGGRTNYADSVKGRFTISRDNAKKTVYLQMNSLKPQDTSVYYCAEKFIYARYGTFQTDYKIYDYWGQGTQVTVSA,high polyreactivity
